The values below come from patent publication US20240197839A1, “Recombinant Human Acid Alpha-Glucosidase and Uses Thereof” (Amicus Therapeutics, Inc., priority 2021, published 2024).

Marks after values point to notes of the source that are not given here.

One may read the Kd as the constant that tells how readily two partners part at equilibrium. Read a low Kd as a tighter complex.

Data set [1] in a line: thermostability assay using SYPRO Orange. Type of data set: physicochemical. How it is done: The stability of ATB200 in acidic or neutral pH buffers was evaluated in a thermostability assay using SYPRO Orange, as the fluorescence of the dye increases when proteins denature. […] As summarized in Table 6, the addition of AT2221 increased the melting temperature (Tm) of ATB200 by nearly 10° C.

For data set [2], the target named is T1, CIMPR (Homo sapiens, UniProt P11717). The data set is described as follows: CIMPR plate binding assay. How it is done: In addition to having a greater percentage of rhGAA that can bind to the CIMPR, it is important to understand the quality of that interaction. LUMIZYME® and ATB200 receptor binding was determined using a CIMPR plate binding assay. Briefly, CIMPR-coated plates were used to capture GAA. Varying concentrations of rhGAA were applied to the immobilized receptor and unbound rhGAA was washed off. The amount of remaining rhGAA was determined by GAA activity. […] For LUMIZYME®, there is on average only 10% of molecules having a bis-phosphorylated N-glycan. In contrast, on average every rhGAA molecule in ATB200 has at least one bis-phosphorylated N-glycan.
N-glycan analysis via MALDI-TOF mass spectrometry confirmed that on average each ATB200 molecule contains at least one natural bis-M6P N-glycan structure.

Data set [3] deals with normal and Pompe fibroblast cell lines. The data set is described as follows: cellular uptake of rhGAA in fibroblasts (internalized GAA by 4MU-α-Glucoside hydrolysis). Type of data set: cell-based. As for the experimental part: The relative cellular uptake of ATB200 and LUMIZYME® rhGAA were compared using normal and Pompe fibroblast cell lines. Comparisons involved 5-100 nM of ATB200 according to the disclosure with 10-500 nM conventional rhGAA product LUMIZYME®. After 16-hr incubation, external rhGAA was inactivated with TRIS base and cells were washed 3-times with PBS prior to harvest. Internalized GAA measured by 4MU-α-Glucoside hydrolysis and was graphed relative to total cellular protein and the results appear in FIGS. 11A-11C.

The test system of the next data set is Gaa KO mice. The data set is described as follows: single fiber analysis (LAMP1/LC3 co-immunofluorescence, white gastrocnemius). Type of data set: in vivo. From the text: FIG. 17 depicts co-immunofluorescent staining of LAMP1 (green) (see for example, “B”) and LC3 (red) (see, for example, “A”) in single fibers isolated from the white gastrocnemius of Gaa KO mice treated with a vehicle, alglucosidase alfa, or ATB200. “C” depicts clearance of autophagic debris and absence of enlarged lysosome. A minimum of 30 fibers were examined from each animal.
As a result, a significant portion of muscle fibers analyzed (36-60%) from ATB200-treated mice appeared normal or near-normal.

Data set [4] addresses T1, CIMPR. The data set is described as follows: CIMPR affinity chromatography (bound vs unbound rhGAA by GAA activity). Type of data set: binding. Particulars: CIMPR affinity column, fraction of total enzyme by GAA activity. An excerpt: Multiple batches of the rhGAA according to the disclosure were produced in shake flasks and in perfusion bioreactors using CHO cell line GA-ATB200, the product of which is referred to as “ATB200.” Weak anion exchange (“WAX”) liquid chromatography was used to fractionate ATB200 rhGAA according to terminal phosphate and sialic acid. Elution profiles were generated by eluting the ERT with increasing amount of salt. The profiles were monitored by UV (A280 nm).
To evaluate the ability of the conventional rhGAAs in MYOZYME® and LUMIZYME® to interact with the CIMPR, the two conventional rhGAA preparations were injected onto a CIMPR affinity column (which binds rhGAA having M6P groups) and the flow through collected. The bound material was eluted with a free M6 gradient. Fractions were collected in 96-well plate and GAA activity assayed by 4MU-α-glucosidase substrate. The relative amounts of unbound (flow through) and bound (M6P eluted) rhGAA were determined based on GAA activity and reported as the fraction of total enzyme. […] Indeed, only 27% of the rhGAA in MYOZYME® and 22% of the rhGAA in LUMIZYME® contained M6P that can be productive to target it to the CIMPR on muscle cells.

T1 sequence (P11717 41-2491, species assumed): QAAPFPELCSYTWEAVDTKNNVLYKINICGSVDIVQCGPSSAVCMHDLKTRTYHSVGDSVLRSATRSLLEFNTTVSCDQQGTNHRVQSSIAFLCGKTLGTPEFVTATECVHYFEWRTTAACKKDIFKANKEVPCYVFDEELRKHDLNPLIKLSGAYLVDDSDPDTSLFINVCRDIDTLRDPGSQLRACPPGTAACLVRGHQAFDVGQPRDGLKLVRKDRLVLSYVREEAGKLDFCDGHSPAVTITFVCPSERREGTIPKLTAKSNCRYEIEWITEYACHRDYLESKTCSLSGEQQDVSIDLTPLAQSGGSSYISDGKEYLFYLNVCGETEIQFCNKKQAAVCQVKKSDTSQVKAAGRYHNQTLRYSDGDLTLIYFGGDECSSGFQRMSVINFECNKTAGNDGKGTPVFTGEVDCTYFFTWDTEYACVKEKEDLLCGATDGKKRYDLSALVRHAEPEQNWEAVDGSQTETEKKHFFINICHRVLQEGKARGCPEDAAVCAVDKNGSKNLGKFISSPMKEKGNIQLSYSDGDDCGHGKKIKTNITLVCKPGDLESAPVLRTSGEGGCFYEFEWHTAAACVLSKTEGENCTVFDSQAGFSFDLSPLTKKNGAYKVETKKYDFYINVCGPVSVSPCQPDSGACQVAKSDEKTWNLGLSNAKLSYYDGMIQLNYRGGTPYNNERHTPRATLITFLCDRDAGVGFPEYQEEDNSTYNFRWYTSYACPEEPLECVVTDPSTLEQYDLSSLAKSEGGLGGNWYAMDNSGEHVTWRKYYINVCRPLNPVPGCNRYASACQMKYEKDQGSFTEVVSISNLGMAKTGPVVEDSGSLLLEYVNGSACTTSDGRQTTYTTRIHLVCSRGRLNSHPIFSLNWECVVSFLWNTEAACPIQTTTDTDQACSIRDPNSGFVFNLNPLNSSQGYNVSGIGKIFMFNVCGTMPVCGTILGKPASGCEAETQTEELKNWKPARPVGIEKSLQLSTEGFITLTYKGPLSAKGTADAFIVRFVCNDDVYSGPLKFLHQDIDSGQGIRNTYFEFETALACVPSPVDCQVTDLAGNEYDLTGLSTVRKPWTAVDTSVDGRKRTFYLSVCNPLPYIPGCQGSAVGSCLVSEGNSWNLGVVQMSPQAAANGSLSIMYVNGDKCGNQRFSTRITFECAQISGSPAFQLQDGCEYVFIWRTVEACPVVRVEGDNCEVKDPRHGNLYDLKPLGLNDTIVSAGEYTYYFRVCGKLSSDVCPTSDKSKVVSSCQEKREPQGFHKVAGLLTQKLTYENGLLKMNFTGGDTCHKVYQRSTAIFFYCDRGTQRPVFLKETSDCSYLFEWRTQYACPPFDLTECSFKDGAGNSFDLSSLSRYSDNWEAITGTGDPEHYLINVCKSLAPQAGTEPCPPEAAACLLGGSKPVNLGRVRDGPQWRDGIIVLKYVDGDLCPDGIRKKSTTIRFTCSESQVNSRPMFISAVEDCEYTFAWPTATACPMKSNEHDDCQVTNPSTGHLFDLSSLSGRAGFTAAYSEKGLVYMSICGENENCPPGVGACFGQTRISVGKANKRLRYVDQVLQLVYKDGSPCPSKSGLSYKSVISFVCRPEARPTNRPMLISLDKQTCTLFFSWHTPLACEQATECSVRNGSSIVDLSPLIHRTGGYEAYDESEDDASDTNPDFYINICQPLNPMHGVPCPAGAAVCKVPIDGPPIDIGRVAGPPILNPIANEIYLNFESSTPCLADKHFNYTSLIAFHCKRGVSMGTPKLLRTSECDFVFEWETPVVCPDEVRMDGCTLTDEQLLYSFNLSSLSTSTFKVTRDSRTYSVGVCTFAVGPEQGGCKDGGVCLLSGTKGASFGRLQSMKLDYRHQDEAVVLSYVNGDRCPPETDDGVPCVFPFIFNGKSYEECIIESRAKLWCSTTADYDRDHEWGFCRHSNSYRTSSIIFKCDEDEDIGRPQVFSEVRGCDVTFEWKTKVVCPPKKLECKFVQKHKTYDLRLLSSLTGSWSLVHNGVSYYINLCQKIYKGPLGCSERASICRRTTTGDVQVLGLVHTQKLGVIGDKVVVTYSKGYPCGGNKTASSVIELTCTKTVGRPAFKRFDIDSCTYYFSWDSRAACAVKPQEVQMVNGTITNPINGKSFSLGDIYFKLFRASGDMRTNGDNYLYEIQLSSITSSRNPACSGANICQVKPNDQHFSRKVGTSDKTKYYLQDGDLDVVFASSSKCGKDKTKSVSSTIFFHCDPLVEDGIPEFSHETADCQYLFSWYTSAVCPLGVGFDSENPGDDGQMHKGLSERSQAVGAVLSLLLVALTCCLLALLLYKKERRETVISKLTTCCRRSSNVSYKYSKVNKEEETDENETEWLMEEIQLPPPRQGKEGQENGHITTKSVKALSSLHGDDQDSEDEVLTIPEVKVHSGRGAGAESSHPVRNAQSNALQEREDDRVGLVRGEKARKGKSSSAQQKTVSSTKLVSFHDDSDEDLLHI

Consider `CCCCN1C[C@H](O)[C@@H](O)[C@H](O)[C@H]1CO` [AT2221, (2R,3R,4R,5S)-1-butyl-2-(hydroxymethyl)piperidine-3,4,5-triol], for which, in data set [1] (pH 7.4), the “increase of the melting temperature (Tm) of ATB200 by addition of AT2221” value was around 10 °C. For the same compound, the “stabilization of ATB200 by AT2221” value in data set [1] (pH 7.4, FIG. 12) is given as “stabilized ATB200 at pH 7.4 in a concentration-dependent manner”.

Take “ATB200: recombinant human acid α-glucosidase with a high content of N-glycans bearing mono-M6P and bis-M6P, produced from a GA-ATB200 CHO cell line”: the “binding to CIMPR compared with LUMIZYME” value in the data set with CIMPR [2] (CIMPR-coated plates, varying rhGAA concentrations (FIG. 10A)) is recorded as “significantly better”. In the data set with CIMPR [2] (M6P receptor plate binding assays), the Kd is 2 to 4 nM. Also, the “internalization into normal and Pompe fibroblast cells compared with LUMIZYME” value in data set [3] (16-hr incubation, FIGS. 11A-11B) is reported as “internalized to a greater degree”. In addition, the “concentration that saturates cellular receptors” value in data set [3] (16-hr incubation, normal and Pompe fibroblasts) is recorded as “about 20 nM”. Also, the “uptake efficiency constant (Kuptake)” value in data set [3] (extrapolated from uptake curves, FIG. 11C) is 2-3 nm. Besides, the Tm amounted to 67.3 °C in data set [1] (pH 5.2); 56.2 °C in data set [1] (pH 7.4); 61.6 °C in data set [1] (pH 7.4 + 10 μM AT2221); 62.9 °C in data set [1] (pH 7.4 + 30 μM AT2221); 66.0 °C in data set [1] (pH 7.4 + 100 μM AT2221). The “Fibers with Autophagy Buildup” value in the data set with Gaa KO mice (Gaa KO mice) is on record as 40-64%*. Besides, in the data set on Gaa KO mice (single fibers, compared to Vehicle- or alglucosidase alfa-treated group), the “area / extent of autophagic buildup” value is on record as “reduced to various degrees”.

Turning to “MYOZYME®: conventional rhGAA product containing alglucosidase alfa, marketed by Genzyme”, in the data set with CIMPR [4] (flow through), the “rhGAA that did not bind to the CIMPR” value is 73%. In the data set with CIMPR [4], the “rhGAA that binds to the CIMPR (M6P eluted)” value is listed as 27%. The “lysosomes and autophagic buildup compared to vehicle-treated mice” value in the data set with Gaa KO mice (single fibers, FIG. 17) is given as “did not show any significant difference”.
